Experimental findings from patent US20220194999A1 (Janssen / Centocor, published 2022) are described below.

Bounds are passed on as bounds.
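Throughout, for Average %: Streptavidin-captured HLA complexes after exchange detected via HRP anti-human B2M antibody, absorbance read, colour scales with intact complex, normalized to exchange control peptide as 100%.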
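Throughout, for Exch I (%): Streptavidin-captured HLA complexes after exchange detected via HRP anti-human B2M antibody, absorbance read, colour scales with intact complex, normalized to exchange control peptide as 100%.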
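Throughout, for Exch II (%): Streptavidin-captured HLA complexes after exchange detected via HRP anti-human B2M antibody, absorbance read, colour scales with intact complex, normalized to exchange control peptide as 100%.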

The first test addresses T1, HLA-A*02:01 class I complex (conditional p*HLA*02:01, biotinylated heavy chain with beta2-microglobulin) (human, biotinylated heavy chain).
T1 construct: UV-labile peptide p* is cleaved and exchanged for the test peptide; also called HLA 2.1
The test can be described thus: UV peptide exchange, HLA class I ELISA; high end of the group, member by Table 4.
Text: (§1) The HLA class I ELISA is an enzyme immunoassay based on the detection of beta2-microglobulin (B2M) of (peptide-stabilized) HLA class I complexes. To this end streptavidin is bound onto polystyrene microtiter wells. After washing and blocking, HLA complex present in exchange reaction mixtures or ELISA controls is captured by the streptavidin on the microtiter plate via its biotinylated heavy chain. Non-bound material is removed by washing. Subsequently, horseradish peroxidase (HRP)-conjugated antibody to human B2M is added. […] In the latter case B2M is removed during the washing step. After removal of non-bound HRP conjugate by washing, a substrate solution is added to the wells. A colored product is formed in proportion to the amount of intact HLA complex present in the samples. After the reaction has been terminated by the addition of a stop solution, absorbance is measured in a microtiter plate reader. The absorbance is normalized to the absorbance of an exchange control peptide (represents 100%). Also, suboptimal HLA binding of peptides with a moderate to low affinity for HLA class I molecules can be detected by this ELISA technique
(§2) Coating wells of two NUNC MaxiSorp™ 96-well ELISA plates: only the contents of one coating buffer capsule were dissolved in 100 mL of distilled water (0.05 M carbonate-bicarbonate buffer, pH 9.6 at 25° C.). 46 μL of Streptavidin stock solution were added to 23 mL coating buffer. 100 μL of the Streptavidin stock solution were added to all wells. Each microtiter plate was covered with an adhesive seal and incubated overnight at room temperature (18-25° C.).
As for SMTCTYFPV (also called M213) [TP53_S127F7 mimic peptide SMTCTYFPV], the “average relative binding (%)” value is 80 to 88%.

As to SMTCTYFPI (also called M215) [TP53_S127F12 mimic peptide SMTCTYFPI], the “average relative binding (%)” value was in the range of 18 to 28%.

With ALNNMFCQV (also called M161) [TP53_K132N5 mimic peptide ALNNMFCQV], the “average relative binding (%)” value is 61 to 69%.

As to KMYPVQLWL (also called M133) [TP53_C141Y8 mimic peptide KMYPVQLWL], the “average relative binding (%)” value fell in the range of 102 to 113%.

Another test concerns the target T1, HLA-A*02:01 class I complex …. The test is described as follows: UV peptide exchange, HLA class I ELISA, % of Pos peptide.
Text: as §1, §2
With LLGRNSFEM (also called M220) [TP53.V272M mutant peptide LLGRNSFEM], the Average % came out at 50.9%, the “Exch I (%)” value was determined as 58.8% and the “Exch II (%)” value came out at 42.9%.

YLDSGIHFG (also called M030) [CTNNB1.S37F mutant peptide YLDSGIHFG]: the Average % was 53.4%, the “Exch I (%)” value came out at 53.7% and the “Exch II (%)” value amounted to 53.2%.

As for ILNREIDFA (also called M090) [PIK3CA.G118D mutant peptide ILNREIDFA], the Average % is 50.4%, the “Exch I (%)” value is 53.1% and the “Exch II (%)” value turned out to be 47.8%.

In the case of SMTCTYFPV (also called M213) [TP53_S127F7 mimic peptide SMTCTYFPV], the Average % worked out at 88.4%, the “Exch I (%)” value is 83.4% and the “Exch II (%)” value was 93.3%.

Turning to SMTCTYFPI (also called M215) [TP53_S127F12 mimic peptide SMTCTYFPI], the Average % came out at 27.5%, the “Exch I (%)” value is 32.2% and the “Exch II (%)” value was found to be 22.7%.

For the molecule YLDCGIHSG (also called M020) [CTNNB1.S33C mutant peptide YLDCGIHSG], the Average % amounted to 33.9%, the “Exch I (%)” value was found to be 34.8% and the “Exch II (%)” value was determined as 33%.

As for ALNNMFCQV (also called M161) [TP53_K132N5 mimic peptide ALNNMFCQV], the Average % was 69.3%, the “Exch I (%)” value came to 69.7% and the “Exch II (%)” value came to 68.8%.

On to ALNNMFCQL (also called M160) [TP53.K132N mutant peptide ALNNMFCQL], for which the Average % is 41.3%, the “Exch I (%)” value amounted to 39.6% and the “Exch II (%)” value amounted to 43.1%.

Take KTYPVQLWV (also called M130) [TP53.C141Y mutant peptide KTYPVQLWV]: the Average % is 68.9%, the “Exch I (%)” value came out at 66.6% and the “Exch II (%)” value came out at 71.2%.

On to KMYPVQLWL (also called M133) [TP53_C141Y8 mimic peptide KMYPVQLWL], for which the Average % is 112%, the “Exch I (%)” value came out at 122% and the “Exch II (%)” value came out at 103%.

In the case of VVPCEPPEV (also called M230) [TP53.Y220C mutant peptide VVPCEPPEV], the Average % worked out at 33.5%, the “Exch I (%)” value stood at 29.4% and the “Exch II (%)” value stood at 37.5%.

QLWVDSTPL (also called M180) [TP53.P152L mutant peptide QLWVDSTPL]: the Average % came to 86.2%, the “Exch I (%)” value was found to be 84.3% and the “Exch II (%)” value was 88.1%.

Another test shares this target. The test can be described thus: UV peptide exchange, HLA class I ELISA; low end of the group, member by Table 4.
Text: as §1, §2
Regarding ALNNMFCQL (also called M160) [TP53.K132N mutant peptide ALNNMFCQL], the “average relative binding (%)” value lay in the range of 41 to 49%.

The target is the same in a further test. The test is described as follows: UV peptide exchange, HLA class I ELISA, % of Pos peptide. This is another data set of the same source.
Take KMYPVQLWL (also called M133) [TP53_C141Y8 mimic peptide KMYPVQLWL]: the “average relative binding (%)” value is above 100%.

The target is the same in a further test. Described as above. The source holds these as a separate data set.
Turning to LLGRNSFEM (also called M220) [TP53.V272M mutant peptide LLGRNSFEM], the “Mutant Binding” value is 50.9%.

Take YLDSGIHFG (also called M030) [CTNNB1.S37F mutant peptide YLDSGIHFG]: the “Mutant Binding” value amounted to 53.7%.

Consider ILNREIDFA (also called M090) [PIK3CA.G118D mutant peptide ILNREIDFA], for which the “Mutant Binding” value came out at 50.4%.

As for YLDCGIHSG (also called M020) [CTNNB1.S33C mutant peptide YLDCGIHSG], the “Mutant Binding” value is 34.8%.

Regarding ALNNMFCQL (also called M160) [TP53.K132N mutant peptide ALNNMFCQL], the “Mutant Binding” value is 41.3%.

As to KTYPVQLWV (also called M130) [TP53.C141Y mutant peptide KTYPVQLWV], the “Mutant Binding” value worked out at 68.9%.

Take VVPCEPPEV (also called M230) [TP53.Y220C mutant peptide VVPCEPPEV]: the “Mutant Binding” value was found to be 33.5%.

Regarding QLWVDSTPL (also called M180) [TP53.P152L mutant peptide QLWVDSTPL], the “Mutant Binding” value was determined as 86.2%.
